{
  "source": "patent US20060246084A1",
  "molecular_target": "synthetic fragment of the mouse TLR-2 extracellular domain (mouse)",
  "data": [
    {"binder": "LMDKNLYGYTDEEIFKAS (modifications not checked)", "note": "[LcrV193-210 synthetic peptide]", "values": [
      {"measurement": "Kd", "value": 0.35, "unit": "nM"}
    ]}
  ]
}
